Source: article PMC4447274, “Gene Regulation by the LiaSR Two-Component System in Streptococcus mutans” (PLoS ONE, 2015)
Changes are numbered by the printed parent chain. Names may count otherwise.

Key:
[1] = molecular target: T1, LiaR (Streptococcus mutans, UniProt Q8DVJ8); test: Phos-Tag SDS-PAGE mobility shift (phosphorylation of LiaR); assay type: biochemical; settings: 20 mM MnCl2, 50 mM Tris-Cl, 50 mM KCl, 1 mM DTT, pH 7.5, 37 °C, 1 h, phosphodonor, covalent phosphorylation
T1 construct: gene SMU_487; ORF from start codon, N-terminal His tag, E. coli BL21, Ni-NTA (pASK-IBA43+, pIBE11)

[2] = molecular target: T2, His-LiaR (Streptococcus mutans UA159) (UniProt Q8DVJ8); test: EMSA; settings: 20 mM Tris-Cl pH 7.5, 100 mM NaCl, 0.01 mM DTT, 5% glycerol, 1 mM EDTA, 0.01 mg/ml BSA, 5 mM MgCl2, 10 ug/ml poly(dI-dC), 30 min (EMSA); BLI in binding buffer …
T2 sequence: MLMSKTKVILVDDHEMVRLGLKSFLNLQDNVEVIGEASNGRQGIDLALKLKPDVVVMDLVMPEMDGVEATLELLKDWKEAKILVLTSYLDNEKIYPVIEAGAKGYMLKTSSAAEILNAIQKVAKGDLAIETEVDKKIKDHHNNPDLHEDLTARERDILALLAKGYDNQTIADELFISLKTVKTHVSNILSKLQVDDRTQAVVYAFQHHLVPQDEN

[3] = molecular target: T3, His-LiaR-D58A D58A (Streptococcus mutans UA159) (UniProt Q8DVJ8); test: EMSA; settings: 20 mM Tris-Cl pH 7.5, 100 mM NaCl, 0.01 mM DTT, 5% glycerol, 1 mM EDTA, 0.01 mg/ml BSA, 5 mM MgCl2, 10 ug/ml poly(dI-dC), 30 min (EMSA); BLI in binding buffer …
T3 sequence: T2 sequence with D58A

[4] = molecular target: T2, His-LiaR (Streptococcus mutans UA159); test: competition; settings: 20 mM Tris-Cl pH 7.5, 100 mM NaCl, 0.01 mM DTT, 5% glycerol, 1 mM EDTA, 0.01 mg/ml BSA, 5 mM MgCl2, 10 ug/ml poly(dI-dC), 30 min (EMSA); BLI in binding buffer …
[5] = molecular target: T4, His-LiaR (Streptococcus mutans UA159, UniProt Q8DVJ8 1-215); test: BLI; 1 uM LiaR; Req reduced 3-fold; 20 mM Tris-Cl pH 7.5, 100 mM NaCl, 0.01 mM DTT, 5% glycerol, 1 mM EDTA, 0.01 mg/ml BSA, 5 mM MgCl2, 10 ug/ml poly(dI-dC), 30 min (EMSA); BLI in binding buffer; settings: protein: recombinant; tags: N-terminal His; chain copies: 2; label: 32P end label (EMSA); 3' biotin on one strand (BLI)
[6] = molecular target: T4, His-LiaR; test: BLI; 1 uM LiaR; 20 mM Tris-Cl pH 7.5, 100 mM NaCl, 0.01 mM DTT, 5% glycerol, 1 mM EDTA, 0.01 mg/ml BSA, 5 mM MgCl2, 10 ug/ml poly(dI-dC), 30 min (EMSA); BLI in binding buffer; settings: protein: recombinant; tags: N-terminal His; chain copies: 2; label: 32P end label (EMSA); 3' biotin on one strand (BLI)
[7] = molecular target: T4, His-LiaR; test: EMSA; 15-30 pmol LiaR; 20 mM Tris-Cl pH 7.5, 100 mM NaCl, 0.01 mM DTT, 5% glycerol, 1 mM EDTA, 0.01 mg/ml BSA, 5 mM MgCl2, 10 ug/ml poly(dI-dC), 30 min (EMSA); BLI in binding buffer; settings: protein: recombinant; tags: N-terminal His; chain copies: 2; label: 32P end label

## CC(=O)OP(=O)(O)O [Ac-Po4, acetyl phosphate]
[1]; 50 mM acetyl phosphate
  Phos-Tag SDS-PAGE mobility shift (phosphorylation of LiaR): The wild-type protein readily acquired phosphate from both acetyl phosphate and phosphoamidate

## NP(=O)(O)O [PA, phosphoamidate]
[1]; 20 mM phosphoamidate
  Phos-Tag SDS-PAGE mobility shift (phosphorylation of LiaR): The wild-type protein readily acquired phosphate from both acetyl phosphate and phosphoamidate

## AGCTTAGTTATCATACATCAATCTTATACAGTCTTAATCCTAGACGGATACAAGTTTGATAACAAAAAAGTTATCTCTTCAAACAAGGAGGCTGAGGCAAGAACCTTAAACTTATAAATATAATAACTACAACATATGAGTATACCTGCATTAGATAACATTATTATCAACAGATCATAAACATAACTTGAATTGACATG (double strand) [PSMU.485 (Plia)]
[2]
  binding: no binding

## ATTACCAATGTGAATCGTGTGGTCAAGTTTATCAAAGAAAAAGACGAATGAATACGAAAAAATACGCTTGTGGCAACTGCCATGGAAAATTAAGACATCAAAATCAGTCGTAAGGCTGATTTTATTCTTCTCTAAATAGTTTATACTAATAGCATCATGAGATTTGTGATTCATTTTTTAAAAAAGGGAGAGTTGTTTGT (double strand) [PSMU.753]
[2]
  binding: binds

## CCTAAGTCCACCTCCCATCTTTAATCAATAGAGTTAGCACTCTTAACAGACGACTGCTAACTTCATAATTCCATTATACTCCATTCCTAATTTCTGTCAAGAGAAAAATACAAAAAATTAGCACTCTTTCTGCTTGAGTGCTAAAAATCCGACTTAAGACTTAGTTTTATTGCTGT (double strand) [PhrcA]
[2]
  binding: binds

## CTTGTTTGAAGAGATAACTTTTTTGTTATCAAACTTGTATCCGTCTAGGATTAAGACTGTATAAGATTGATGTATGATAACTAAGCTATGGCGTCTTTGATATTTGAAAAATTCTCTTTATCTTTAGTGTTATTTGGTCTAGATCAAGAGGTGAAATTTATCCTAAATTTTGATACAATGACTAATAATTGTAGAACTGAAGGAAGCCTTATG (double strand) [Alternative PSMU.485]
[2]
  binding: no binding

## GTTTATTCAAGAAATTCGCAAAGGTCCATCTCCTTTTTCTAAAGTCACTTATGTTGACGTCAATATAGCAAATTTTTCTGATTACCATGATTTCAGAATGGCCAATTAATTTATCTCAAAATCATTCTCAAGAACTATTGAGTATTTTACTAAAAAACAGTAAAATAGATAGGTATTATTAAAATCAAAGGAAGATTATC (double strand) [PSMU.1727]
[2]
  binding: binds

## TTAATTGAGGAAGATAATACTGAAGAAAAACAGTCTTCTAAAGAAAAAGAAACTGATGAGAAAGCTGACAAAAACCTTGTTTTAGAGCTGGATGATACAATTGAGCTTGAAGATTAAATAAAAATAGGTCCCAAGACCGACTCTTTATTTAATAAGCTATGCTAAGATAATATTATCCTGTAAGGAAAGAGAGATTTAAAC (double strand) [PSMU.2084]
[2]
  binding: binds
[3]
  binding: no binding
[4]
  binding: binds

B1: C13A/A17G consensus (dsDNA)
DNA 1: ATCAAAATCAGTATCAGGACCGATT
DNA 2: AATCGGTCCTGATACTGATTTTGAT
[5]
  binding signal: ~4 fold reduction of Rmax vs consensus

B2: A23G/T25C consensus (dsDNA)
DNA 1: ATCAAAATCAGTCTCAAGACCGGTC
DNA 2: GACCGGTCTTGAGACTGATTTTGAT
[6]
  binding signal: ~1.5 fold reduction of Rmax and Req vs consensus

B3: IR only (16-bp) (dsDNA)
DNA 1: TCAGTCTCAAGACCGATT
DNA 2: AATCGGTCTTGAGACTGA
[7]
  binding result: no binding
